Data taken from the MegaScale stability set (Tsuboyama et al. 2023).

B1: EHEE_rd2_0196 (parent)
chain: TETRTFDSEEEAKKAQKEAEKQGRTVTITRRDDRWEVRFD

Variants of: B1
Assay: folding stability dG (cDNA display proteolysis); higher = more stable
Details: PBS, room temperature

Variant	folding stability dG
E20H	2.64 kcal/mol
E20I	2.85 kcal/mol
E20K	2.4 kcal/mol
E20L	3.14 kcal/mol
E20M	3.06 kcal/mol
E20N	2.53 kcal/mol
E20P	0.742 kcal/mol
E20Q	2.86 kcal/mol
E20R	2.46 kcal/mol
E20S	2.47 kcal/mol
E20T	2.52 kcal/mol
E20V	2.67 kcal/mol
E20W	2.94 kcal/mol
E20Y	2.56 kcal/mol
K21A	3.41 kcal/mol
K21D	3.08 kcal/mol
K21E	3.18 kcal/mol
K21F	2.66 kcal/mol
K21G	3.06 kcal/mol
K21H	2.82 kcal/mol
K21I	2.82 kcal/mol
K21L	3.22 kcal/mol
K21M	3.11 kcal/mol
K21N	2.96 kcal/mol

Variant	folding stability dG
K21P	1.11 kcal/mol
K21Q	3.11 kcal/mol
K21R	3.11 kcal/mol
K21S	3.19 kcal/mol
K21T	2.85 kcal/mol
K21V	2.72 kcal/mol
K21W	2.55 kcal/mol
K21Y	2.64 kcal/mol
Q22A	3.08 kcal/mol
Q22C	3.26 kcal/mol
Q22D	2.88 kcal/mol
Q22E	3.06 kcal/mol
Q22F	2.79 kcal/mol
Q22G	2.58 kcal/mol
Q22H	2.99 kcal/mol
Q22I	2.83 kcal/mol
Q22K	2.73 kcal/mol
Q22L	3.19 kcal/mol
Q22M	3.24 kcal/mol
Q22N	3.02 kcal/mol
Q22P	1.55 kcal/mol
Q22R	2.84 kcal/mol
Q22S	2.92 kcal/mol
Q22T	2.82 kcal/mol

Variant	folding stability dG
Q22V	2.81 kcal/mol
Q22W	2.8 kcal/mol
Q22Y	2.73 kcal/mol
G23A	1.56 kcal/mol
G23C	2.46 kcal/mol
G23D	1.39 kcal/mol
G23E	1.11 kcal/mol
G23F	1.81 kcal/mol
G23H	2.15 kcal/mol
G23I	0.786 kcal/mol
G23K	1.61 kcal/mol
G23L	1.47 kcal/mol
G23M	1.57 kcal/mol
G23N	2.01 kcal/mol
G23P	0.683 kcal/mol
G23Q	1.67 kcal/mol
G23R	1.63 kcal/mol
G23S	1.57 kcal/mol
G23T	0.908 kcal/mol
G23V	0.857 kcal/mol
G23W	1.64 kcal/mol
G23Y	1.75 kcal/mol
R24A	2.56 kcal/mol
R24D	2.29 kcal/mol

Variant	folding stability dG
R24E	2 kcal/mol
R24F	3.59 kcal/mol
R24G	1.93 kcal/mol
R24H	3 kcal/mol
R24I	3.23 kcal/mol
R24K	3.01 kcal/mol
R24L	3.23 kcal/mol
R24M	3.32 kcal/mol
R24N	2.13 kcal/mol
R24P	0.456 kcal/mol
R24Q	2.84 kcal/mol
R24S	2.19 kcal/mol
R24T	2.22 kcal/mol
R24V	2.85 kcal/mol
R24W	3.24 kcal/mol
R24Y	3.62 kcal/mol
T25A	2.83 kcal/mol
T25D	1.97 kcal/mol
T25E	2.28 kcal/mol
T25F	2.43 kcal/mol
T25G	2.32 kcal/mol
T25H	3.16 kcal/mol
T25I	2.99 kcal/mol
T25K	3.13 kcal/mol

Variant	folding stability dG
T25L	2.77 kcal/mol
T25M	2.67 kcal/mol
T25N	2.69 kcal/mol
T25P	2.21 kcal/mol
T25Q	2.81 kcal/mol
T25R	3.32 kcal/mol
T25S	2.9 kcal/mol
T25V	3.09 kcal/mol
T25W	2.22 kcal/mol
T25Y	2.33 kcal/mol
V26A	3.4 kcal/mol
V26C	3.6 kcal/mol
V26D	0.12 kcal/mol
V26E	0.318 kcal/mol
V26F	0.841 kcal/mol
V26G	2.61 kcal/mol
V26H	0.258 kcal/mol
V26I	2.08 kcal/mol
V26K	0.184 kcal/mol
V26L	1.23 kcal/mol
V26M	1.18 kcal/mol
V26N	0.69 kcal/mol
V26P	1.87 kcal/mol
V26Q	0.065 kcal/mol

Variant	folding stability dG
V26R	0.117 kcal/mol
V26S	3 kcal/mol
V26T	2.76 kcal/mol
V26W	0.253 kcal/mol
V26Y	0.849 kcal/mol
T27A	2.16 kcal/mol
T27C	3.03 kcal/mol
T27D	1.37 kcal/mol
T27E	2.03 kcal/mol
T27F	1.94 kcal/mol
T27G	1.36 kcal/mol
T27H	2.59 kcal/mol
T27I	2.94 kcal/mol
T27K	2.45 kcal/mol
T27L	1.89 kcal/mol
T27M	2 kcal/mol
T27N	2.11 kcal/mol
T27P	0.682 kcal/mol
T27Q	2.52 kcal/mol
T27R	2.56 kcal/mol
T27S	2.76 kcal/mol
T27V	2.88 kcal/mol
T27W	1.8 kcal/mol
T27Y	1.95 kcal/mol

Variant	folding stability dG
I28A	0.842 kcal/mol
I28C	2.46 kcal/mol
I28D	-0.146 kcal/mol
I28E	0.07 kcal/mol
I28F	0.342 kcal/mol
I28G	0.232 kcal/mol
I28H	-0.123 kcal/mol
I28K	0.714 kcal/mol
I28L	2.06 kcal/mol
I28M	1.77 kcal/mol
I28N	0.423 kcal/mol
I28P	0.277 kcal/mol
I28Q	0.41 kcal/mol
I28R	1.31 kcal/mol
I28S	0.645 kcal/mol
I28T	1.18 kcal/mol
I28V	2.83 kcal/mol
I28Y	0.332 kcal/mol
T29A	2.36 kcal/mol
T29D	1.71 kcal/mol
T29E	2.48 kcal/mol
T29F	2.3 kcal/mol
T29G	2.02 kcal/mol
